Measurements reported in publication PMC5512577, “PDE6δ-mediated sorting of INPP5E into the cilium is determined by cargo-carrier affinity” (Nature Communications, 2016).
Where two headings read alike, the source gives them in different places.

Columns and labels:
GST-PDE6δ = GST-PDE6δ pull-down and release by Arl2/Arl3 from IMCD3 lysates; assay type: binding; conditions: 20 μM GST-PDE6δ on GSH-beads, 20 μM Arl2 or Arl3, 1 h 4 °C, anti-GFP immunoblot
Protocol: Figure 5 INPP5E ciliary enrichment is dependent on high affinity to PDE6δ. […] White bar indicates 5 μm. (b) Bar chart showing ratio of GFP intensity in cilia to the total GFP intensity, indicating the enrichment of GFP-tagged protein in cilia. […] Error bars indicate s.d., n≥35 (P<0.05; Student’s t-test). […] Formed complexes in the pulldown experiment were incubated with Arl2 or Arl3 as indicated. The amount of GFP-tagged interacting proteins bound to GST-PDE6δ was detected by immunoblotting with an antibody against GFP.
IMCD3 cells stably expressing GFP-INPP5E(WT) or GFP-INPP5E(KS) were lysed in lysis buffer containing 75 mM Hepes pH 7.5, 150 mM KCl, 1.5 mM EGTA, 1.5 mM MgCl2, 15% glycerol, 0.2% NP-40 and one protease inhibitor cocktail tablet (Roche). Cell lysates were cleared and supernatants were incubated for 1 h at 4 °C with 100 μl GSH-beads conjugated with 20 μM GST-PDE6δ. For the release assay, 20 μM of either Arl2 or Arl3 were added to the previous mixture and incubated for further 1 h at 4 °C. After 5 times washing with the lysis buffer, the complexes were analysed by western blotting using anti-GFP antibody (1:500; Santa Cruz Biotechnology sc-9996) and anti GST (1:5,000; home source). Full scans of western blots are provided in Supplementary Fig. 6.

PDE6δ = assay: Stopped-flow fluorescence polarization kinetics of mantGppNHp-loaded Arl proteins with PDE6δ; assay type: binding; conditions: for association rate constant kon with PDE6δ: 0.2 μM mantGppNHp-loaded Arl protein, increasing PDE6δ; for association rate constant kon with PDE6δ / dissociation rate constant koff from PDE6δ: 20 °C; for association rate constant kon with PDE6δ / dissociation rate constant koff from PDE6δ / Kd: n=4; for dissociation rate constant koff from PDE6δ: 2 μM PDE6δ with 0.2 μM mantGppNHp-loaded Arl protein, 200-fold excess unlabelled Arl protein; for Kd: calculated from kinetic constants, ± s.d., read-out: equilibrium dissociation constant Kd with PDE6δ (Kd=koff/kon)
Protocol: Previously we have shown that the N-terminal helix of Arl3 is important to release myristoylated cargo from a complex with the shuttle factor UNC119 (ref. [30]). To find out whether the N-terminus of Arl3 and/or Arl2 has a similar if any role in the interaction with PDE6δ, fluorescence polarization measurements using full-length Arl3 (Arl3^fl) or an N-terminal truncated form (Arl3^ΔN) were performed. […] To investigate the role of the N-terminal helix of Arl3 in the release mechanism, we measured association and dissociation rate constants to determine the affinity of PDE6δ towards Arl2 and Arl3 in both full-length and N-terminal truncated forms. Association rate constants between the four proteins Arl3^fl, Arl3^ΔN, Arl2^fl and Arl2^ΔN are rather similar although association is almost twice as fast for full-length Arl3 as compared with Arl2 (Fig. 3a,b). […] The Kd values for Arl2^fl and Arl3^fl differ from previously determined values, likely because of the different techniques used.
Figure 3 Contribution of the N-terminal helix of Arl3 to the binding affinity with PDE6δ. (a) Stopped-flow fluorescence polarization kinetic measurements of the association of 0.2 μM mantGppNHp loaded Arl proteins with increasing concentrations of PDE6δ. The observed pseudo-first order rate constants (kobs) are plotted against PDE6δ concentration. (b) Bar charts of the association rate constants (kon) determined in a. (c,d) Stopped-flow fluorescence polarization kinetic experiments where complexes of 2 μM PDE6δ with 0.2 μM of full-length (Arl^fl) or N-terminally deleted (Arl^ΔN) mantGppNHp loaded Arl proteins as indicated were mixed with 200-fold excess of unlabelled Arl proteins to determine koff. (e) Bar charts of the dissociation rate constants (koff) from experiments in c,d. (f) Bar charts of the equilibrium dissociation constants (Kd) of complexes between PDE6δ and Arl proteins as determined from the kinetic constants in c,e. Error bars indicate s.d., n=4. TEXT PRINTED IN THE PICTURE: (b) Arl3^fl: kon (μM^-1s^-1): 5.97 | (b) Arl3^ΔN: kon (μM^-1s^-1): 4.25 | (b) Arl2^fl: kon (μM^-1s^-1): 2.25 | (b) Arl2^ΔN: kon (μM^-1s^-1): 3.09 | (e) Arl3^fl: koff (s^-1): 0.035 | (e) Arl3^ΔN: koff (s^-1): 0.92 | (e) Arl2^fl: koff (s^-1): 0.33 | (e) Arl2^ΔN: koff (s^-1): 0.98 | (f) Arl3^fl: kd (nM): 5.84 | (f) Arl3^ΔN: kd (nM): 217 | (f) Arl2^fl: kd (nM): 149 | (f) Arl2^ΔN: kd (nM): 319
All fluorescence polarization measurements were performed at 20 °C in a buffer containing 25 mM Tris-HCl (pH 7.5), 50 mM NaCl and 3 mM DTE. For the titration measurement, data were recorded with Fluoromax-4 spectrophotometer (HORIBA Jobin Yvon, Munich, Germany) with excitation and emission wavelengths at 530 and 580 nm for TAMRA-labelled INPP5E peptide and at 495 and 520 nm for fluorescein-labelled Rheb peptide. The kinetic measurements were monitored by a stopped-flow apparatus (Applied Photophysics) in the polarization mode using an excitation wavelength of 366 nm and filter with 420 nm cutoff for mantGppNHp bound Arl protein, excitation wavelength of 495 nm and filter with 520 nm cutoff for fluorescein-labelled Rheb peptide and excitation wavelength of 530 nm and filter with 570 nm cutoff for TAMRA-labelled INPP5E peptide. Data analysis was done with GraFit 5.0 program (Erithracus Software). Concentrations used for each experiment are indicated in the corresponding figure legend.

Molecule	release from GST-PDE6δ by Arl2·GppNHp / Arl3·GppNHp (GST-PDE6δ)	difference in koff / residence time with PDE6δ, full-length versus N-terminally deleted form (PDE6δ)	association rate constant kon with PDE6δ (PDE6δ) [M⁻¹ s⁻¹]	association rate constant kon with PDE6δ (PDE6δ; listed as Arl2^ΔN) [M⁻¹ s⁻¹]	dissociation rate constant koff from PDE6δ (PDE6δ) [s⁻¹]	dissociation rate constant koff from PDE6δ (PDE6δ; listed as Arl2^ΔN) [s⁻¹]	Kd (PDE6δ; listed as Arl2^ΔN) [nM]	Kd (PDE6δ) [nM]
INPP5E(WT): GFP (LAP)-tagged mouse INPP5E stably expressed in IMCD3 cells (protein, left off: LAP tag (GFP-TEV-site-S-peptide), N-terminal, kept, GFP (LAP)-tagged mouse INPP5E stably expressed in IMCD3 cells) MPSKSACLRHTEAPGQLEGRMLQGQPPNTEKKLIPTPGFLPASDSQGSETNPMPPFSIPAKTSNQNPQTKANLITPQPPIRPKLERTLSLDDKGWRRRRFRGSQEDLTVQNGASPCRGSLQDSVAQSPAYSRPLPCLSTSLQEIPKSRRATGSEGGSPSLWSDCLSGMISTSLDLLHRDAASGGPPSRLASLHASHTPPAMDLSIASSSLRTANKVDPEHTDYKLRMQTRLVRAHSNLGPSRPRSPLAGDDHSIHSARSFSLLAPIRTKDIRSRSYLEGSLLASGALLGAEELARYFPDRNMALFVATWNMQGQKELPASLDEFLLPTEADYTQDLYVIGIQEGCSDRREWETRLQETLGPQYVLLSSAAHGVLYMSLFIRRDLIWFCSEVEYSTVTTRIVSQIKTKGALGVSFTFFGTSFLFITSHFTSGDGKVAERLLDYSRTIQALALPRNVPDTNPYRSSAGDVTTRFDEVFWFGDFNFRLSGGRVAVEAFLKQKPEVDVLALLQHDQLTREMKKGSIFRGFEEAEIHFLPSYKFDIGKDTYDSTSKQRTPSYTDRVLYKSRHKGDICPMKYSSCPGIKTSDHRPVYGLFQVKVRPGRDNIPLAAGKFDRELYLIGIKRRISKEIQRQEALKSQSSSAVC	specifically released only by Arl3·GppNHp							
Arl2^fl: full-length Arl2, mantGppNHp loaded (protein, left off: His tag, C-terminal, state not stated, full-length Arl2, mantGppNHp loaded) MGLLTILKKMKQKERELRLLMLGLDNAGKTTILKKFNGEDVDTISPTLGFNIKTLEHRGFKLNIWDVGGQKSLRSYWRNYFESTDGLIWVVDSADRQRMQDCQRELQSLLVEERLAGATLLIFANKQDLPGALSCNAIQEALELDSIRSHHWRIQGCSAVTGEDLLPGIDWLLDDISSRVFTAD		threefold	2.25e+06	3.09e+06	0.33	0.98	316 ± 6.3	149 ± 19
INPP5E(KS) mutant: GFP-tagged INPP5E S641K/V643S protein stably expressed in IMCD3 cells (protein, left off: LAP tag (GFP-TEV-site-S-peptide), N-terminal, kept, GFP-tagged INPP5E S641K/V643S protein stably expressed in IMCD3 cells) MPSKSACLRHTEAPGQLEGRMLQGQPPNTEKKLIPTPGFLPASDSQGSETNPMPPFSIPAKTSNQNPQTKANLITPQPPIRPKLERTLSLDDKGWRRRRFRGSQEDLTVQNGASPCRGSLQDSVAQSPAYSRPLPCLSTSLQEIPKSRRATGSEGGSPSLWSDCLSGMISTSLDLLHRDAASGGPPSRLASLHASHTPPAMDLSIASSSLRTANKVDPEHTDYKLRMQTRLVRAHSNLGPSRPRSPLAGDDHSIHSARSFSLLAPIRTKDIRSRSYLEGSLLASGALLGAEELARYFPDRNMALFVATWNMQGQKELPASLDEFLLPTEADYTQDLYVIGIQEGCSDRREWETRLQETLGPQYVLLSSAAHGVLYMSLFIRRDLIWFCSEVEYSTVTTRIVSQIKTKGALGVSFTFFGTSFLFITSHFTSGDGKVAERLLDYSRTIQALALPRNVPDTNPYRSSAGDVTTRFDEVFWFGDFNFRLSGGRVAVEAFLKQKPEVDVLALLQHDQLTREMKKGSIFRGFEEAEIHFLPSYKFDIGKDTYDSTSKQRTPSYTDRVLYKSRHKGDICPMKYSSCPGIKTSDHRPVYGLFQVKVRPGRDNIPLAAGKFDRELYLIGIKRRISKEIQRQEALKSQSSKASCTVS	can indeed be released by both Arl2·GppNHp and Arl3·GppNHp							
